Key:
[1] = tested on: CFP-TRIM14-YFP 22-residue substrate
[2] = tested on: CFP-TRIM14-YFP 19-residue substrate
[3] = tested on: CFP-FOXP3-YFP (18-residue)
[4] = tested on: CFP-MYH6/7-YFP (23-residue)
[5] = tested on: CFP-MYH6/7-YFP (16-residue)
[6] = tested on: CFP-FOXP3-YFP (25-residue)

Substance	cleavage of CFP-YFP substrate (CFP-SFVp12-YFP 19:6)	Km [1] [µM]	Vmax [1] [U/mg]	cleavage of CFP-YFP substrate [1]	Km (CFP-V34-YFP) [µM]	Vmax (CFP-V34-YFP) [U/mg]	cleavage of CFP-YFP substrate (CFP-V34-YFP)	Km [2] [µM]	Vmax [2] [U/mg]	cleavage of CFP-YFP substrate [2]	cleavage of CFP-YFP substrate (CFP-SFVp12-YFP 11:6)	cleavage of CFP-YFP substrate (CFP-VEEVnsP23-YFP)	cleavage of CFP-YFP substrate [3]	cleavage of CFP-YFP substrate [4]	cleavage of CFP-YFP substrate [5]	cleavage of CFP-YFP substrate [6]	cleavage of CFP-YFP substrate (CFP-PROS1-YFP)
Recombinant VEEV nsP2-thioredoxin Protease containing residues 457-792	CHIKV and VEEV nsP2 cysteine protease	26	0.008	VEEV nsP2 cysteine protease	21	0.089	VEEV nsP2 cysteine protease	50	0.012	VEEV nsP2 cysteine protease	CHIKV and VEEV nsP2 cysteine protease	VEEV nsP2 cysteine protease					
Recombinant MERS-CoV-2 Papain-like Protease													SARS-CoV-2, MERS PLpro	SARS-CoV-2, MERS PLpro	SARS-CoV-2, MERS PLpro	SARS-CoV-2, MERS PLpro	SARS-CoV-2, MERS PLpro
